Laboratory results from the nanobody polyreactivity screen of Harvey et al. (2022).

Experiment: yeast display, Sf9 membrane polyspecificity reagent, FACS + sequencing; frameworks hold sequencing errors
Summary of the method: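 Synthetic nanobody libraries on Saccharomyces cerevisiae BJ5465 were galactose-induced for 36–48 hours, stained 1 hour at 4 °C with 10% biotinylated, detergent-solubilized Sf9 membrane reagent and enriched on streptavidin microbeads. FACS then separated cells into low and high (top ~1%) gates by anti-HA (expression) and streptavidin (reagent binding) fluorescence. Genes were colony-PCR amplified, MiSeq 2 × 250 sequenced and CDR-length filtered. A clone's polyreactivity label is that of its gate of origin.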

Sequence | polyreactivity (PSR sort gate)
QVQLVESGGGLVQAGGSLRLSCASSGSTFPSYAMGWYRQAPGKERELVAAINSGGGTNYADSVKGRFTISRDNAKNTVYLQMNSLKPEDTAVYYCAAYEGTYFTEVDYWGQGTQVTVSS | low polyreactivity
QVQLVESGGGLVQAGGSLRLSCAASGSTFYPYSMGWYRQAPGKERELSTYADSVKGRFTISRDNAKNSVYLQMNSLKPEDTAVYYCAALHWRWYDYWGQGTQVTVSS | low polyreactivity
QVQLVESGGCLVQAGGSLRLSCDAYGSTFDDNAMGWYRQAPGKERELVAGISTNGGSTSYADSVKGRFTISRDNAKNTVYLQMNSLKPEDTAVYYCAKGLYVHFDYWGQGTQVTVSS | low polyreactivity
QVQLVESGGGLVQAGGSLRLSCAASGSTFIFYSMGWYRQAPGKERELVAAITSSGGSTYYADSVKGRFTISRDNANNTVYLQMNSLKPEDTAVYYCITLAYTYGSKFGYWGQGTQVTVSS | low polyreactivity
QVQLVESGGGLVQAGGSLRLSCAASGRIFNYNAIGWYRQAPGKERELVAAITCSGGSTYYADSVKGRFTISRDNAQYNVYLQMNSLKPEDTAVYYCIALITYSSDYWGQGTQVTVSS | low polyreactivity
QVQLVESGGGLVQAGGSLRLSCAASGLIFANYAMGWYRQAPGKERELVAAITWSGGTTYYADSVKGRFTISRDNAKNTVYLQMNSLKPEDTAVYYCAAEVPYYQAAEYDYWGQGTQVTVSS | low polyreactivity
QVQLVESGGGLVQAGGSLRLSCAASGNIFSAYALGWYRQAPGKERELVATITSGGITYYADSVKGRFTISRDNAKNTVYLQMNSLNPEDTAVYYCNADHHGQAEYGYWGQGTQVTVSS | low polyreactivity
QVQLVESGGGLVQAGGSLRLSCAASGSIFGYNVMGWYRQAPGKERELVAAITYSGGSTYYADSVKGRFTISRDNAKNTVYLQMNSQKQEDTAVYYCAKVTGRRFPAYGYDHWGQGTQVTVSS | high polyreactivity
QVHLVESGGGLVQAGGSLRLSCAASGSICGHYAMGWYRQAPGKERELVANITLSDGRTYYADSVKGRFTISLDNAKNTVYFQMNSLKPEDTAVYYCAARYYSFSSPFDYWGQGNQVTVSS | high polyreactivity
QVQLVESGGGLVQAGGSLRLSCAASGSIFNYYAMGWSRQAPGKERELVAAITTSGGNTYYADSVKGRFTISRDNAKNNVYLQMNILKPEDTAVYYCNADYRQITSYGFDYWGQGSQVTVSS | low polyreactivity
QVQLLESGGGLVQAGGSLRLSCAASGSILYPYAMGWYRQAPGTERELVAVITKSGGGTYYADSVKGRFTISRDNAKNTVYLQMNSLKPEDTAVYYCNRVWLRGAPHMEYWGQGTQVTVSS | high polyreactivity
QVQLVESGGGLVQAGGSLRLSCAASGSSFSRYDMGWYRQAPGKERELVATITRPGRTYYADSVKGRFTISRDNATKTVYLQMNSLKPEDTAVYYCAKDAGKTYYVDGSLEYDSWGQGTQVTVSS | low polyreactivity
QVQLVESGGGLVQAGGSLRLSCAASGLTFGRNAMGWYRQAPGKERELVAAITFNGGSTYYADSVKGRFTISRDNAKNTVYIQMNSLKPEDTAVYYCAAPYYVYWTYPYRVLSYYYWGQGTQVTVSS | high polyreactivity
QVQLVESGGGLVQAGGSLRLSCAASGTFGYMGWYRQAPGKERELVAAITSRGGGNTYYADSVKGRFTISRDNAKNTVYLQMNSLKPEDTAVYYCAASRVGYHGQTYDYWGQGTQVTVSS | high polyreactivity
QVQLVESGGGLVQAGGSLRLSCAASGRIFGPYAMGWYRQAPGKERELVAAITRGGSTSYADSVKGRFTISRDNAKNTVDLQMISLKTEDTAVDYCAADTLRWWYGFDYWGQGTQVTVSS | low polyreactivity
QVQLEESGGGLVQAGGSLRLSCAASGSTFLLYAMGRYRQAPGKEMEMVATISWGGDGTYYADSVKGRFTISRDNAKNTVYLQMNSLIPEDTAVYYCAAESYLVQFYFLYYYWGQGTQVTVSS | low polyreactivity
QVQLVESGAGLVQAGGSLRLSCAASGRIFAYNAMGWYRQAPGKERELVAGITIRGGRTYYADSVKGRFTISRYNAKNTVYLQMNSLKPEDTAVYYCNARGWYEYGWGQGTQVTVSS | high polyreactivity
QVQLVESGGGLVQAVVSLRLSCADTGFTFRRYAMGWDRQAPGKERELVAVITTAGSTNYADSVKGRFTISRDNAKNTVYLKMNSLKPEDTAVYYCATDNGTRKRRYDYWGQGTQVTVSS | low polyreactivity
QVQLVESGAGLVHAGGSLRLSCAASGRIFGINAMGWYRQAPGKERELVAAINWSGGSTYYADSVKGRFTISRDNAKNTVYLQMNSVKPEDTAVYYCAAQKYKRVGYWGQGTQVTVSS | high polyreactivity
QVQLVESGGGLVQAGGSLRLSCAASGYIFGSYTMGWYRQAPAKERELVAGISRRGGGTYYADSVKGRFTISRDNAKNTVYLQMNSLKPEDTAVYYCAAEVITIGLYRYGYWGQGTQVTVSS | high polyreactivity
QVQLVDSGGGLVQAGGSLRLSCAASGSTFYAYVMGWYRQAPGKERELVAGITWSGGSTYYADSVKGRFTISRDNAKNTVYLQMNSLKPEDTAVYYCAADYYNTYGYDYWGQGTQVTVSS | low polyreactivity
QVQLVESGGGLVQAGGSLRLSCAASGRIFGVNAMGWYRQAPGKEREFVAVISSVGSTYYADSVKGRFTISRDNAKNTVYLQMKSLKPEDTAVYYCNAVVGRWFPYYLSDYWGQGTQVTVSS | low polyreactivity

Sequence | polyreactivity (PSR sort gate)
QVQLVESGGGLVQAGGSLRLSCAASGSIFGIYAMGWYRQAPGKERELVAAIRRGGSTYYADSVKGRFTISRDNAKNTVYLQMNSLKPEDTAVYYCNTDYHRLLRSRPKYYYWGQGTQVTVSS | high polyreactivity
QVQLVESGGGLVQAGGSLRLSCAASGFIFGGYVMGWYRQAPGKERELVAAITWSGGSTYYADSVKGRFTISRDNAKHTVYVQLNSQKREDTAVYYCNSRVPARLWRWSPYPVDYWGQGTQVTLSS | high polyreactivity
QVQLVESGGGLVQAGGSLRLSCAASGSTFAYNAMGWYRQAPGKERELVAAISKGGGSTYYADSVKGRFTISRDNAKNTVYLQMNSLKPEDTAVYYCNAYYRSPRGYNYWGQGTQVTVSS | high polyreactivity
QVQLVESGGGLVQAGGSLRLSSAASGSTFYYNAMGWYRQAPGKEREFVAAITYTGGSTDYADSVKGRFTISRDNAKNTVYLQMNSLKPEDTAVYYCAKGTYGYISTWYDYWGQGTQVTVSS | low polyreactivity
QVQLVESGGGLVQAGGSLSLSCAASGRIIKFYAMGWYRQAPGKERELVARISRSGGRTYYSDSVKGRFTISRDNAKNTVYLQMNSLKPEDPAVYYCNADGDNRRDRYEYWGQGTQVTVSS | low polyreactivity
QVQLVESGGGLVQAGGSLRLTCDASGITFRLYAMGWSRQAPGKETELVARITDRGSTYYADSVKGRFTISRDNAKNTVYLQMNSLKPEDTAVYYCAARGYRGLVQLRYGYWGQGTQVTVSS | high polyreactivity
QVQLVESGGGLVLAGGSLRLSCAASGRTFRTYTMGWYRQAPGKERELVAAISYSGGSTYYADSVKGRFTISRDNAKNTVYLQMNSLKPEDTAVYYCAVYQVGWYGLMDYWGEGTQVTVSS | high polyreactivity
QVQLVESGGGLVQAGGSLRLSSAASGLTFQEYAMGWYRQAPGKERELVAAISWSGGSTYYADSVKGRFTISRDNAKNTVYLQMNSLKPEDTAVYYCAAEAYEEYITGWYAYDYWGQGTQVTVSS | high polyreactivity
QDQLVESGGGLVHAGGSLRLSCAASGLTFGRNAMGWYRQAPGKERELVAAISRSGGRTSYADSVKGRFTISRDNAKYTVYLQMHSLKPEDTAVYYCAARSDVFTHDYWGQGTQVTVSS | high polyreactivity
QVQLVESGGGLVQAGGSLRLSCAASGFIFTKNAIGWYRQAPGKERDLVDAISGTGGSTYYADSVKGRFTISRDNAKNTVYLKMNSLKPEDTAVYYCASRRYRLFSTGGQPGYYWGQGTQVTVSS | high polyreactivity
QVQLVESGGGLVQAGGSLRLSCAASGFIFQVYAMGWYRQAPGKERELVAAISDDGSTNYADSVKGRFTISRDNAKYTVYLQMNSLKPEDTAVYYCAKESWGRLYYRYDYWGQGTQVTVSS | low polyreactivity
QVQLVESVGGLVQAGVSLRLSCAASGRIFGRYPMGWYRQAPGKERELVAAISFNGGSTSYADSVKGRFTISRDNAKNTVYLQMNSLKQEDTAVYYCAAKYRGFNYWGQGTQVTVSS | high polyreactivity
QVQLVESGGGLVQAGGSLRLSCAASGIIFSSNAMGWYRQAPGKERELVAAISRSGGSTYYADSVKARFTISRDNAKKTVYLQMNSLKPEDTAVYDCAAVYRRGHEYDYWRQGTQVTVSS | high polyreactivity
QVQLVESGGGLVQAGGSLRLSCAASGFTLYGYTMGWYRQAPGKERELVAAISGSGGRTYYADSVKGRFTISRDNAKNTVYLQMNSLKPEDTAVYYCAARHHPEYYYWGQGTQVTVSS | high polyreactivity
QVQLVESGGGLVQAGGSLRLSCAASGIIFPPYTMGWYRQAPGKERELVAGITGNSGTTYYADSVKGRFTISRDNAKNTVYLQMNSLKPEDTAVYYCAVRDVYHRYWGQGTQVTVSS | high polyreactivity
QGQLVESGGGLVQAGGSLRLSCAPTGRTFAHYARGWYRQAHWTERELVAGITRRAGSTYYADSVKGRFTISRDNAKHSVYLHMNSLKPEETEVYYCAAPRDWDAGDYWGQGTQVTVSS | high polyreactivity
QVQLVESGGGLVQAGGSLRLSCAASGSTFWGYAMGWYRQAPGTERELVAAITRNGGGTYYADSVKGRFTISRDNAKNTVYLQMNSLKPEDTAVYYCAATRRAYYLYGGQKMDYWGQGTQVTVSS | high polyreactivity
QVQLVESGGGLVQAGGSLRLSCAASGSTFHSYAMGWYRQAPGKERELVAAISSSGGSTYYADSVKGRFTISRDNAKNTVYLQMNSLKPEDTAVYYCAADWRTKGYDSLGQGTQVTVSS | high polyreactivity
QVQLVESGGGLVQAGCSLRLSCAASGRTFDSYTMGWYRQAPGKERELVAAIRSSGGRTYADSVKGRFTISRDNAKNTVYLQMNSLKPEDTAVYYCDADRRGSHYYRYKYGYWGQGTQVTVSS | high polyreactivity
QVQLVESGGGLVQAGGSLRLSCAASGNTVYYYGMGWYRQAPGKERDLVAAINYSGGSTYYADSVKGRNTISRDNAKNTVYLPMNSKKPEVTAVYYCNADYVPAYRDLASLADGYYWGQGTQVTVSS | low polyreactivity
QVQLVESGGGLVQAGGSLRLSCAASGSIFYWYTMGWYRQAPGKERELVAAISSIDGNTYYADSVKGRFTISRDNAKNTVYLQMNSLKPEDTAVYYCAAAYYNTDYYYWGQGTQVTVSS | low polyreactivity
